US20220194997A1 (published 2022)
Where no end group is shown, it is not given here.

T1: αsyn(48-60)
T1 peptide: VVHGVATVAEKTK

T2: αsyn(35-45)
T2 peptide: EGVLYVGSKTK

T3: αsyn(87-95)
T3 peptide: SIAAATGFV

T4: αsyn(74-84)
T4 peptide: VTAVAQKTVEG

T5: αsyn(59-66)
T5 peptide: TKEQVTNV

B1: SUMO1(15-55) (peptide)
peptide: DKKEGEYIKLKVIGQDSSEIHFKVKMTTHLKKLKESYCQRQ
modifications: also: Alexa Fluor 647 NHS ester on amines when used as MST target
B2: SUMO1(31-55) (peptide)
peptide: SSEIHFKVKMTTHLKKLKESYCQRQ

How the values were obtained:
Experiment in all cases: MST
[1] = molecular target: T1, αsyn(48-60)
[2] = molecular target: T2, αsyn(35-45)
[3] = molecular target: T3, αsyn(87-95)
[4] = molecular target: T4, αsyn(74-84)
[5] = molecular target: T5, αsyn(59-66)
[6] = molecular target: αSyn-SIM2(5A)
[7] = molecular target: αSyn-SIM1(5A)
[8] = molecular target: α-Synuclein-V40R/V49R
[9] = molecular target: human wild-type α-synuclein (full-length) (UniProt P37840 1-140)

Binder | Kd [1] [µM] | Kd [2] [µM] | Kd [3] [µM] | Kd [4] [µM] | Kd [5] [µM] | Kd [6] [µM] | Kd [7] [µM] | Kd [8] [µM] | Kd [9] [µM]
B1 | 0.87 | 1.19 | 364 | 195 | 108 | 0.86 | 19.6 | 88.3 | 
B2 |  |  |  |  |  |  |  |  | 2.32
